From article PMC9073325

Substrate: Nc1ncnc2c1ncn2[C@@H]1O[C@H](COP(=O)(O)OP(=O)(O)OP(=O)(O)O)[C@@H](O)[C@H]1O
Experiment: purified protein
Details: pH 7.0; 25.0 °C

B1: SOBIR1-KD (Arabidopsis thaliana) (protein)
chain: SIFSPLIKKAEDLAFLENEEALASLEIIGRGGCGEVFKAELPGSNGKIIAVKKVIQPPKDADELTDEDSKFLNKKMRQIRSEINTVGHIRHRNLLPLLAHVSRPECHYLVYEYMEKGSLQDILTDVQAGNQELMWPARHKIALGIAAGLEYLHMDHNPRIIHRDLKPANVLLDDDMEARISDFGLAKAMPDAVTHITTSHVAGTVGYIAPEFYQTHKFTDKCDIYSFGVILGILVIGKLPSDEFFQHTDEMSLIKWMRNIITSENPSLAIDPKLMDQGFDEQMLLVLKIACYCTLDDPKQRPNSKDVRTMLSQIKH
  Km: 19.92 ± 0.69 µM
  kcat: 0.660 ± 0.006 s⁻¹
